Data published in US20220252584, “METHODS AND DEVICES FOR […] A PATHOGEN AND ITS MOLECULAR COMPONENTS” (THE REGENTS OF THE UNIVERSITY OF CALIFORNIA, published 2022).

How the values were obtained:
[1] = biological target: SARS-CoV-2 nucleocapsid (N) protein (SARS-CoV-2, UniProt P0DTC9 P0DTC9:1-419)
SARS-CoV N protein = SARS-CoV N protein (SARS-CoV, UniProt P59595 P59595:1-422)
SARS-CoV spike RBD = SARS-CoV spike RBD (SARS-CoV, UniProt P59594 P59594:306-527)
SARS-CoV-2 spike RBD = SARS-CoV-2 spike RBD (SARS-CoV-2, UniProt P0DTC2 P0DTC2:319-541)

B1: Aptamer-N (Aptamer Np-48) (ssDNA)
DNA: GCTGGATGTCGCTTACGACAATATTCCTTAGGGGCACCGCTACATTGACACATCCAGC
modifications: 3' amino linker, coupled to PBASE-graphene
B1: binds [1].

B2: Aptamer-N (Aptamer Np-48) (ssDNA)
DNA: B1 DNA
B2: binds (SARS-CoV N protein).

B3: Aptamer-S (Aptamer 1C) (ssDNA)
DNA: CAGCACCGACCTTGTGCTTTGGGAGTGCTGGTCCAAGGGCGTTAATGGACA
B3: binds (SARS-CoV spike RBD); binds (SARS-CoV-2 spike RBD).
